Measured values as given in patent US12281340B2, “Method of producing N-acyl-amino group-containing compound” (AJINOMOTO CO., INC., priority 2018, dated 2025).

What was measured:
[1] = Synthesis of N-caprinoylamino acid using purified acylamino acid synthetase, UPLC-MS detection; assay type: biochemical; set-up: key: +: Detected; −: Not detected; details: +ATP
Method: 2.0 mL of a reaction solution containing 50 mM Tris-HCl, 5 mM amino acid, 5 mM sodium caprate, 10 mM ATP, 10 mM MgCl2, 1 mM DTT, 50 μg of the purified enzyme, pH 8.0 was incubated at 25° C. for 24 hours. After completion of the reaction, 0.8 mL of a reaction stop solution (1% (v/v) phosphoric acid, 75% (v/v) methanol) was added, and the mixture was filtrated through a filter followed by being subjected to the UPLC-MS analysis to detect a signal of a molecular weight corresponding to an N-caprinoyl amino acid.
A UPLC-MS analysis condition is as follows.
Apparatus: ACQUITY UPLC (Waters)
• Column: ACQUITY UPLC BEH C18 1.7 2.1×100 mm Column (Waters) • Mobile phase A: 0.1% formic acid • Mobile phase B: acetonitrile Gradient
• Flow rate: 0.6 mL/min • Injection amount: 2 μL • Column temperature: 40° C. • Ionization method: ESI-negative
As a result of the UPLC-MS analysis, the signal of the molecular weight corresponding to the N-caprinoyl amino acid was confirmed in the reaction solution combining the enzyme and the amino acid shown in Table 3 below.

[2] = Synthesis of N-caprinoyl-amino acid derivative, N-caprinoyl-D-amino acid and N-caprinoyl-peptide using purified acylamino acid synthetase, UPLC-MS detection; assay type: biochemical; set-up: key: +: Detected; −: Not detected; details: +ATP
Method: 0.2 mL of a reaction solution containing 50 mM Tris-HCl, 5 mM amino acid derivative or D-amino acid or peptide, 5 mM sodium caprate, 10 mM ATP, 10 mM MgCl2, 1 mM DTT, 50 μg/mL of the purified enzyme, pH 8.0 was incubated at 25° C. for 24 hours. After completion of the reaction, 0.8 mL of the reaction stop solution (1% (v/v) phosphoric acid, 75% (v/v) methanol) was added, and the mixture was filtrated through the filter followed by being subjected to the UPLC-MS analysis to detect a signal of a molecular weight corresponding to an N-caprinoyl-amino acid derivative, an N-caprinoyl-amino acid or an N-caprinoyl-peptide. A condition for the UPLC-MS analysis is as described in Example 2.
As a result of the UPLC-MS analysis, the signal of the molecular weight corresponding to the N-caprinoyl-amino acid derivative, or N-caprinoyl-amino acid, or N-caprinoyl-peptide was confirmed in the reaction solution containing the enzyme in combination with the amino acid derivative or the D-amino acid or the peptide shown in Table 4 below.

[3] = substrates GABA and sodium caprate
[4] = substrates Gly and sodium caprate
[5] = substrates L-Ala and sodium caprate
[6] = substrates L-Arg and sodium caprate
[7] = substrates L-Asn and sodium caprate
[8] = substrates L-Asp and sodium caprate
[9] = substrates L-Cys and sodium caprate
[10] = substrates L-Gln and sodium caprate
[11] = substrates L-Glu and sodium caprate
[12] = substrates L-His and sodium caprate
[13] = substrates L-Ile and sodium caprate
[14] = substrates L-Leu and sodium caprate
[15] = substrates L-Lys and sodium caprate
[16] = substrates L-Met and sodium caprate
[17] = substrates L-Phe and sodium caprate
[18] = substrates L-Pro and sodium caprate
[19] = substrates L-Ser and sodium caprate
[20] = substrates L-Thr and sodium caprate
[21] = substrates L-Trp and sodium caprate
[22] = substrates L-Tyr and sodium caprate
[23] = substrates L-Val and sodium caprate
[24] = substrates β-Ala and sodium caprate
[25] = substrates Carnosine and sodium caprate
[26] = substrates D-Ala and sodium caprate
[27] = substrates D-Asp and sodium caprate
[28] = substrates D-Cys and sodium caprate
[29] = substrates D-Glu and sodium caprate
[30] = substrates D-Ile and sodium caprate
[31] = substrates D-Lys and sodium caprate
[32] = substrates L-Asp-L-Phe and sodium caprate
[33] = substrates L-Gly-L-Gly and sodium caprate
[34] = substrates Sarcosine and sodium caprate
[35] = substrates Taurine and sodium caprate

signal of molecular weight corresponding to N-caprinoyl amino acid [1, 3] | signal of molecular weight corresponding to N-caprinoyl amino acid [1, 4] | signal of molecular weight corresponding to N-caprinoyl amino acid [1, 5] | signal of molecular weight corresponding to N-caprinoyl amino acid [1, 6] | signal of molecular weight corresponding to N-caprinoyl amino acid [1, 7] | signal of molecular weight corresponding to N-caprinoyl amino acid [1, 8] | signal of molecular weight corresponding to N-caprinoyl amino acid [1, 9] | signal of molecular weight corresponding to N-caprinoyl amino acid [1, 10] | signal of molecular weight corresponding to N-caprinoyl amino acid [1, 11] | signal of molecular weight corresponding to N-caprinoyl amino acid [1, 12] | signal of molecular weight corresponding to N-caprinoyl amino acid [1, 13] | signal of molecular weight corresponding to N-caprinoyl amino acid [1, 14] | signal of molecular weight corresponding to N-caprinoyl amino acid [1, 15] | signal of molecular weight corresponding to N-caprinoyl amino acid [1, 16] | signal of molecular weight corresponding to N-caprinoyl amino acid [1, 17] | signal of molecular weight corresponding to N-caprinoyl amino acid [1, 18] | signal of molecular weight corresponding to N-caprinoyl amino acid [1, 19] | signal of molecular weight corresponding to N-caprinoyl amino acid [1, 20] | signal of molecular weight corresponding to N-caprinoyl amino acid [1, 21] | signal of molecular weight corresponding to N-caprinoyl amino acid [1, 22] | Molecule | further results
+ | + | + | + | + | + | + | + | + | + | + | + | + | + | + | + | + | + | + | + | PsIAAL: indoleacetate-lysine synthetase from Pseudomonas savastanoi (PaaK protein), His-tagged (protein, listed as Pseudomonas savastanoi, His-tag, indoleacetate-lysine synthetase from Pseudomonas savastanoi (PaaK protein), His-tagged) MTAYDMEKEWSRISITAAKIHQNNDFEGFTYQDFRTHVPIMDKDGFAAQTERCLERNERNCLIGFTSGTSGNIKRCYYYYDCEVDEDSSLSNVFRSNGFILPGDRCANLFTINLFSALNNTITMMAGNCGAHVVSVGDITLVTKSHFEALNSIKLNVLLGVPSTILQFINAMQHNGVHINIEKVVFTGESLKTFQKKIIRQAFGEQVSIVGVYGSSEGGILGFTNSPCHTEYEFLSDKYFIEKEGDSILITSLTRENFTPLLRYRLGDTATLSMKGDKLYLTDIQREDMSFNFMGNLIGLGIIQQTIKQTLGRSLEIQVHLSVTEERKELVTVFVQASEVDEDERVRIETAIADIPDIKEAYQKNQGTVSVLRKDARDYAVSERGKMLYIIDRRN | signal of molecular weight corresponding to N-caprinoyl amino acid [1, 23]: +; signal of molecular weight corresponding to N-caprinoyl amino acid [1, 24]: +; signal of molecular weight corresponding to N-caprinoyl compound [2, 25]: +; signal of molecular weight corresponding to N-caprinoyl compound [2, 26]: +; signal of molecular weight corresponding to N-caprinoyl compound [2, 27]: +; signal of molecular weight corresponding to N-caprinoyl compound [2, 28]: +; signal of molecular weight corresponding to N-caprinoyl compound [2, 29]: +; signal of molecular weight corresponding to N-caprinoyl compound [2, 30]: +; signal of molecular weight corresponding to N-caprinoyl compound [2, 31]: +; signal of molecular weight corresponding to N-caprinoyl compound [2, 32]: +; signal of molecular weight corresponding to N-caprinoyl compound [2, 33]: +; signal of molecular weight corresponding to N-caprinoyl compound [2, 34]: +; signal of molecular weight corresponding to N-caprinoyl compound [2, 35]: +
+ | + | + | + | + | + | + | + | + | − | + | + | + | + | + | − | + | + | + | + | PaHP: hypothetical protein from Pantoea agglomerans (PaaK protein), His-tagged (protein, His-tag; Pantoea agglomerans, hypothetical protein from Pantoea agglomerans (PaaK protein), His-tagged) MRSYDHQPTFVEQHNRISIISGSTFRDYEHFARSVPISKLVRMHEVEGKQGDDSSANLPSLIGATSGTSGKMKPVRIQLKNGGCSVSASERNFIYHLRERRVFFPQDVVGNLFTINLFSTLHQSACDIVKYCQGSIVPVGDIALLTRDHFLFLQEVELSVLFGVPATIIQFVEAMLSNKVPIGIKKIVFTGETLRPSQAEWLRSRLGRTLSIVGLYGLSECGFLGLTDAQDCDEYTLFNDDFFFEQDPVHGLLVTSLDPSAKNRLIRYPTGDGVELTFHNKQLKMRIMARKDLLFNFVGNLISVESIAATVAESIPESFIQLVIRSEKGQQELLLVNVAGKNLQTQQLELIAQKLRARPELAEVYQKQRGRLEVHSVAENAFVLSARGKHQFVVDERE | signal of molecular weight corresponding to N-caprinoyl amino acid [1, 23]: +; signal of molecular weight corresponding to N-caprinoyl amino acid [1, 24]: +; signal of molecular weight corresponding to N-caprinoyl compound [2, 25]: +; signal of molecular weight corresponding to N-caprinoyl compound [2, 26]: +; signal of molecular weight corresponding to N-caprinoyl compound [2, 27]: +; signal of molecular weight corresponding to N-caprinoyl compound [2, 28]: +; signal of molecular weight corresponding to N-caprinoyl compound [2, 29]: +; signal of molecular weight corresponding to N-caprinoyl compound [2, 30]: +; signal of molecular weight corresponding to N-caprinoyl compound [2, 31]: +; signal of molecular weight corresponding to N-caprinoyl compound [2, 32]: −; signal of molecular weight corresponding to N-caprinoyl compound [2, 33]: +; signal of molecular weight corresponding to N-caprinoyl compound [2, 34]: −; signal of molecular weight corresponding to N-caprinoyl compound [2, 35]: +
